experiment: soluble on expression in E. coli; label from the status in PepcDB or PDB records

| Sequence | soluble on expression in E. coli |
| --- | --- |
| MKGLENAIRNLNSLDRQMVPRASIWAVNRVAQKAVSVATRKVARETVAGDNQVRGLPLKLVRQRVRLFKAGTDGKRSARIRINRGNLPAIKLGAAQVRMSKRRGKLLYRGSVLKIGPYLFRDAFIQQLANGRWHVMRRVNGKNRYPIDVVKIPLSGPLTQAFESATQSLIDEEIPKQLGYALKQQLRLYLSR | not soluble |
| MKGLKERQDRRLGAFLGLAVGDALGAQVEGLPKGTFPEVREMKGGGPHRLPPGFWTDDTSQALCLAESLLQRGFDPKDQMDRYLRWYREGYRSATGVCFGLGHATRRALERYAATGDPYAGDEAGAGNGPLMRLAPLVLAYENHPDLLSLARRAARTTHGAREALEATEVLAWLLREALRGAPKEALLALEPFRGADLHPALRRVVEGGFWEAPEEGPGYAPGTLAAALWAFARGRDFEEGMRLAVNLGGDADTVGAVYGQLAGAYYGLGAIPGRWLRALHLREEMEALALALYRMSMASPRE | soluble |
| MKIALMMENSQAAKNAMVAGELNSVAGGLGHDVFNVGMTDENDHHLTYIHLGIMASILLNSKAVDFVVTGCGTGQGALMSCNLHPGVVCGYCLEPSDAFLFNQINNGNAISLAFAKGFGWAGELNVRYIFEKAFTGKRGEGYPIERAAPQQANAAILNNVKAAVAKDVVEGLRAIDQELVKTAVGSTQFQECFFAHCQVPEIAEYVKSLLD | soluble |
| MKIAYFSDTYYPTPDGVSTYLKDVKRGLEKRGHEVYIFSLTGDPHEKNVFIPRTVPFPPYDQYRMPLIPFPFREFKTAVDIMPDVIHLHNAFYMSSVGYLVARRLGKKPISTFHTDIDKMRESIRLPFSDLIFDLGKRYSIYLYRKCKFVLAPSCQVKAYLERCGLKNIVTVPLFVDTDELSPAKASNKQDIILYLGRLTKDKGVYRVLELANEMKGTGYKFIIAGVGPELERMKAYVKENDISNVNILGYVKEDEKKQLMEVSKFFIYPSSADTFGISVFEALSMGLPAIVSKEFPVKEDTNAIVYEDFSNIKHIANKLLNIDQATYSEMSTSARTLAISKYSIDRHIDQLLSLYMSLVDHLEHHHHHH | not soluble |
| MKIESSCPLPVKPGMTVAQATEACYQSELGADTYVEEFEGWVDIEALEPGDPGRKIVCCVEDGICITVEMKYMELPITDTFYGVDLNCQPGEGWMTSLERVARALEDKGLTVVKRDSYILLPDVFVAIEVGETIGWFDPAYWSREEFLEEAILA | not soluble |
| MKIESWKEGDFVNVPGKQAVSLEEFYRMRETTDRILEYIDGAVLMSPSPSTQHQRISGRLHVQLFHFLEGKPCEVFHAPFDIELKNERIEGKKIVVPDLTVICDRSGLTDSKFVGVPTLIIEILSPSNQAYDLVFKLNLYMQYGVGEYWIVNPMHSVVQIYSLNDDGQYEQAGVWKETGMACSRALDGFSVDVEQLFRP | not soluble |
| MKIGFLGFGKSNRSLLKYLLNHQEAKFFVSEAKTLDGETKKFLEEHSVEYEEGGHTEKLLDCDVVYVSPGIKPDTSMIELLSSRGVKLSTELQFFLDNVDPKKVVGITGTDGKSTATALMYHVLSGRGFKTFLGGNFGTPAVEALEGEYDYYVLEMSSFQLFWSERPYLSNFLVLNISEDHLDWHSSFKEYVDSKLKPAFLQTEGDLFVYNKHIERLRNLEGVRSRKIPFWTDENFATEKELIVRGKKYTLPGNYPYQMRENILAVSVLYMEMFNELESFLELLRDFKPLPHRMEYLGQIDGRHFYNDSKATSTHAVLGALSNFDKVVLIMCGIGKKENYSLFVEKASPKLKHLIMFGEISKELAPFVGKIPHSIVENMEEAFEKAMEVSEKGDVILLSPGGASFDMYENYAKRGEHFREIFKRHGGDEV | soluble |
| MKIIARDRGTGKTTELVKESARTGQYILASNKSHVRAIEQIAKKAGVTIPYPVTVDEIVSMDRFTCASSIQRDGLLVDEAIMVLSKLIGLKITGATISLEGEQQC | not soluble |
| MKIIGKIGKGKVEVNEKTKFSILLNNVAKKADIAEGKRAVEDIIRVIYRHQPISTKKIAQKTRLPLPIVAKVRTILEREKILKRTERGAELTDLGKEFAENFLKLKYKKSLTCKTCNGRGIVLDEFFEDILNKVRVWAKRRPLVDTTIDQSFATPETSTYRAALMYERGDLEGKRILFVGDDDLTSLPTALTNMAEEIAVVDIDERILKLIEKFSQKEGVKIKTIKHDLRNPLPQDLKERFDVISTDPPYTVDGLKLFLSRGIEALGKEGIAYLSYSHKPIDEWLSIQKAITNMGFVISELIPNFNYYEGSEIIANTTFIARLVGKNLKINIGDTEKIYTGLVKPVIRYYKCLKCGKIHKVGEEVKKVEDLVCECGGKKFKMIKREKLKNELEHHHHHH | soluble |
| MKIIYCITKADNGGAQTHLIQLANHFCVHNDVYVIVGNHGPMIEQLDARVNVIIIEHLVGPIDFKQDILAVKVLAQLFSKIKPDVIHLHSSKAGTVGRIAKFISKSKDTRIVFTAHGWAFTEGVKPAKKFLYLVIEKLMSLITDSIICVSDFDKQLALKYRFNRLKLTTIHNGIADVPAVKQTLKSQSHNNIGEVVGMLPNKQDLQINAPTKHQFVMIARFAYPKLPQNLIAAIEILKLHNSNHAHFTFIGDGPTLNDCQQQVVQAGLENDVTFLGNVINASHLLSQYDTFILISKHEGLPISIIEAMATGLPVIASHVGGISELVADNGICMMNNQPETIAKVLEKYLIDSDYIKMSNQSRKRYLECFTEEKMIKEVEDVYNGKSTQ | not soluble |
| MKIKRLSLWHVPLTSHTAYYMAEGKTCDTVETAVLCIETDTGLTGWGEVCPIPHYLPAYARGVGPALSELAPVILSADPIGPEALMAKADAYLPDHRYAKSALDIALWDLTGQAAGLPLHALLGGQRQADLPLYHSITCIEPDEMARIAIEAQAQGMTQFQAKLGASGDWQTDVERLIKVREAVGSGPILYGDWNCGSTSLDATRTGRAVAHLDIMLEQPCATIEDCARVHSATGLPMKLDELVHDTASLLKAHQLGLMDVAALKLSKFGGLSATRRARDLCLHLGAKMCVEDTWGSDITTAAVLHLGAATDPARVLNVCDLSGYVSPRLAQDAPTRAQGRIAPPQAAGLGIAVDKTALGQPELILD | soluble |
| MKIKTLLSIITAMALLILGTEVATAQSTGVPTIDSGSPESNQPLNDTMITTKVKAELAIAEGIKSGDISVETVNGVVILTGTQPNEMLIKKAEEVAKSVKDVKQVDISGLTVNTTTAD | not soluble |
| MKIKWLGHACFLLTSDNGIRVVTDPYDNTVGYKVEKIDAEIVSTSHDHYDHNYVDMVSENAKHVKSEGKTNIDGIEITGVTSFHDDCKGAKRGKNVIFKFKIDGIDVCHLGDLGHVLSDSQVREIGNVDVLLVPVGGVYTIDYKGAVEVMKLVNPKITIPMHYKTPALSFDVDGVENFLSATGGKHIGKQEIELKKDEIENWPKVVALDYQ | soluble |
| MKILKDTVLFGLFASYADGVRNGEEKLSAAYDDFATLLATLPTDGTNICAQLRRLFYTKIELRGIQETVSTNGMERHVLFDVYIGKALALLDAEEQMMKEVLRHGGTEAMGLKEEAVCRNGKKGSVTLTWNGTDSDLIELVAALMAAGVIGTAEGRELKVVDVIRVFEEVFHLKINALYTKRGKVFDRCTDTTPFIDSLRRSYNRMLDARLA | not soluble |
| MKILVAVKQTAALEEDFEIREDGMDVDEDFMMYDLNEWDDFSLEEAMKIKESSDTDVEVVVVSVGPDRVDESLRKCLAKGADRAVRVWDDAAEGSDAIVVGRILTEVIKKEAPDMVFAGVQSSDQAYASTGISVASYLNWPHAAVVADLQYKPGDNKAVIRRELEGGMLQEVEINCPAVLTIQLGINKPRYASLRGIKQAATKPIEEVSLADIGLSANDVGAAQSMSRVRRMYIPEKGRATMIEGTISEQAAKIIQIINEFKGA | soluble |
| MKILVIGGPTAIGKSDLACCVAQKLNGEIISADSMAVYKFMDIGTAKPLECMKKVPHHLIDVVEPGGYFDAKIFEEMAKEKIEEIKRKGKVPIVVGGTYLYIQALLYGIDETPKPDWNLRNKLYEIARKKGNDYLYEKLKAIDPKYAKKIHKNDLRRIVRALEVFINTGKPFSSFHSWNKPKMDFVGIYLKRSPESLYKRIENRVYDMVKDGLLEEVKKLLEMGYENFLTSGQAIDYKEFVPCAKGEKSLEECIKEAIKNTKKQAKRQIRWFRKQGWHEIDLDKLSIEEACEEVVRIYKDANKTKLEHHHHHH | not soluble |
| MKIMGFYSQVILPRLLDWSLSDPTLATYRQELLTDVTGEVLEIGFGTGLNLAYYPSHIHKITTVDVNPGMNTIAQKRIDDSGIKVQQLLLSGENLPMADNTFDSVVSTWTLCSIANVEQALQEVYRVLKPGGKFFFLEHGLSNKPNVQVWQNRLTPIQKVLADGCHLNRNIQQLVEQSFDHVELKRFTPENFPDLMAHFYKGCATKKSILEHHHHHH | soluble |
| MKINNLVDLHCHILPAIDDGSPSLEASLELARQAVADGIRYILATPHHMDRHYLNHAGDVVAAVEAFQAELDVNDIPLTIFPGQEVHLNGQLMEKVDDLLSIDTGRHYLLLELPHEMVPSYLDEMIFQLSCEGITPVIAHPERNAQIIAEPQRLYKLAEDGVLAQVTATSLVGTFGEQVQRTAKEFVKCGLVQVVASDAHTLKNRGFAMTKAYQVLNEMDSKYPERFATNARDLLNGEQIEMGQIEIPRKQRKHWLF | not soluble |
| MKIQELKLFNGLTEDELQRSLVCSQSNIVEYEKDDYIFSQGERPRWIYMILSGEVLLEQINMAGRQTYAEYLGERQQFGVVDLFLKRKQYSYSARARSHVKLLKISSHFFYGTCENNCMHHSKILFNMMGVFAEEAEKKSKKIQLLTCGSLRQRIALYLLQNSGENKKVELMMNREELAASLNAARPSLSRELSQMQDEGIIKMEGRKSIKILDYSRLQEDLADVSD | not soluble |
| MKIRLLVSILCILFAGCALQQTNRALQPDQRWVTQTLPNGLTYHLYPDSEQEVSIRLYVHAGSMQETAQQAGYAHFIEHMAFNGTRHYQHNDVIRMFEQSGAQFGADFNALTGYDRTVYQLDLPNAQNIDKALLWFADIADGLAFDADEVEKEKGVILGEFRASRTENMSLEQQFYLHQIQGTSYADRDPLGSRELVQAATPDSLKAFYQQWYQPQLAELVITGNFTLEQGQQWVENYFSSWKKGSTEKPASIYHQALNNQDLVAPVTAGESPSLTLIFPQGSAAIKDYASQQEFWRDDVGEQLLHTRLVAAFNDAAQAITGIYATHYEIEGQRYTLISVGFAAEQREKVQALLLETLASMRDYGVTKNELDIILRGYREHLTFLQEDREAITPASHANQKVYSIVFDTPIQATLDYQASLSEFIASATPEMINRHIQQQLSQNPVWVVGVAATEDAQALNKALPQWRNDLAQPGNQPIDQQIDSPFTQQFTAGEVVKQLDINDDPQVTYWQLDNGIDVYYLRNIEAKDRVFVQYASSGGQFALPADLLPAAEIATAVQTRSGLDTLNGSQFDRYLRQKDIGFYSYIASTSHGFEANSKAQELPELLEILHLLSTQVKVSPDQLNSVKTEFTQNRSAYFDSPIGAFFRTVTNQSFIETSPYRIRTPEQIAQVTAQQIEQVHQRLFSEGRNNTLVIVGDIERSQITPMLRQYVASIPLSKGTLSPMTSQLIKPVAPRLELALNNENSTQYSLRLISETQPRTAKTVFIDDMLQRIATQRLLAEVREHQGLDYTPQVIPYVVDGDILNDWVLSALVDPKSEPQVAKVMHEVARELAQGVTQQELDVVKQKFLIDMKPLNKSPEQQAYFMLRYAIHHYGVETIYKVEELTKSITLDDINQRAQTLFGKDTMSQELIMTPKANPKG | not soluble |
| MKITFIGGGNMAGAMIGGLIHHGSTPSHICAVETDAMRRQQLAEACGVTVTASIPDGIHGSEIVILAVKPQQLRAVANQAAQFLQNKLVISIAAGVRASDLSQWLNRHEFVIRAMPNTPALIGEGITGLYALPLVDSRQKEQATTILEAIGTVIWVNEEAQLDAVTALSGSGPAYVFYFLEAMQEAGTQLGLTADTAKQLAMQTFLGATHLAAQSNDTLATLRMKVTSQGGTTEQALLSMEQADIRGAFIRAMHAACDRSRQMGEIFGRTLEHHHHHH | soluble |

From the DeepSol protein solubility set
